Patent US20250092426, “CAS ENDONUCLEASES AND RELATED METHODS” (Flagship Pioneering Innovations VII, LLC, published 2025)

Biological target: T1, CasEnd-20 (synthetic construct)
T1 chain: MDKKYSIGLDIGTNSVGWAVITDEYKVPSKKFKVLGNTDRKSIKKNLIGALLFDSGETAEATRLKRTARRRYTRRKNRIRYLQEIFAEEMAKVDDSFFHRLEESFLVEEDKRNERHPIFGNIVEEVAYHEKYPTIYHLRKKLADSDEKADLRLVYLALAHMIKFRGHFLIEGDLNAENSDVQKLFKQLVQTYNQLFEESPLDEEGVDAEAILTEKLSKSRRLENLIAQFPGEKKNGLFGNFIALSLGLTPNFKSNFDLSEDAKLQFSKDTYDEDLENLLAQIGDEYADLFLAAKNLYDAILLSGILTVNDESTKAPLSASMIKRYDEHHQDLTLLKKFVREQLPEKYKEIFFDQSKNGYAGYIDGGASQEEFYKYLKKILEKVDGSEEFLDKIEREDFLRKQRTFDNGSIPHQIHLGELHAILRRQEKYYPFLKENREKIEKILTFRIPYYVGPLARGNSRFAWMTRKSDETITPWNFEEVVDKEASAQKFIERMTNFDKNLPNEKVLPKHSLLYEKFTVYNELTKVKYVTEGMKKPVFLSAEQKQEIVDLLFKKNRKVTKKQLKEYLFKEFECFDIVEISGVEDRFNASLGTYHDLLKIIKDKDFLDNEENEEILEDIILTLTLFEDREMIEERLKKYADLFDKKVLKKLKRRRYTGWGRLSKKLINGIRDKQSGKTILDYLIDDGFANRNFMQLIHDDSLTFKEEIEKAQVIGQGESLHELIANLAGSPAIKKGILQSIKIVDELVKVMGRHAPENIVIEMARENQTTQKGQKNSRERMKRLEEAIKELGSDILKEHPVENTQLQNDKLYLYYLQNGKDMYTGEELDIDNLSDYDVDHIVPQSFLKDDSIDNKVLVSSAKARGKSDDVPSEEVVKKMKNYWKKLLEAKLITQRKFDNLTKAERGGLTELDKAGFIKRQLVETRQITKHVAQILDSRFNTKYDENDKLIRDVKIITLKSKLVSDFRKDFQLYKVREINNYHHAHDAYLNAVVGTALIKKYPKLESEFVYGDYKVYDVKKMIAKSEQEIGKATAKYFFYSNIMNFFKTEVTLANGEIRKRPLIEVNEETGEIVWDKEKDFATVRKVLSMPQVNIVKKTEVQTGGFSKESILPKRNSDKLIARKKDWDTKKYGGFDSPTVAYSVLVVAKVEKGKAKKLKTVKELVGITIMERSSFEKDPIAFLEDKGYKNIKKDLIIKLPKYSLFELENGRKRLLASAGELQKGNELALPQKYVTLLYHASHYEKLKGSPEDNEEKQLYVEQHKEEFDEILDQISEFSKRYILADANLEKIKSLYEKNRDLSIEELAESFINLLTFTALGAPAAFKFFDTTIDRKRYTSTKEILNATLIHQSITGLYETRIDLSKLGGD
Experiment: cell_activity; +++; K562, second nick guide SEQ 380; PAM not stated
Method: The ability of the candidate endonucleases, including endonucleases 1-38 (CasEnds 1-38) (set forth in Table 1 and SEQ ID NOS: 1-38, respectively), to mediate target nucleic acid editing in cells was assessed by amplicon sequencing of the endogenous hemoglobin subunit beta (eHBB) gene, wherein the percent of amplicons displaying the intended edit is measured. The editing system is comprised of a template RNA (designed to introduce the Single Nucleotide Polymorphism), a second nick guide RNA, and a fusion protein consisting of retroviral reverse transcriptase and the individual subject Cas endonuclease.
Briefly, 250 ng of plasmid DNA encoding the subject fusion protein (containing one of the subject CasEnds), 250 ng each of plasmid DNA encoding the template RNA and the second nick guide RNA were added to 15 μL Lonza SF buffer containing 250,000 K562 cells. Nucleofection was mediated utilizing program FF-120-DA on a Lonza nucleofector. The day of nucleofection was marked as day 0. At day 3, the cells were harvested and subjected to lysis buffer treatment overnight. Genomic DNA was extracted and used for targeted amplicon sequencing to evaluate the performance of each Cas endonucleases based on their percent edit efficiencies.

B1: HBB template RNA ; HBB protospacer (ssRNA ; dsDNA)
RNA: CAUGGUGCACCUGACUCCUGGUUUUAGAGCUAGAAAUAGCAAGUUAAAAUAAGGCUAGUCCGUUAUCAACUUGAAAAAGUGGCACCGAGUCGGUGCACGGCAGACUUCUCUGCCGGAGUCAGGUGC
DNA 1: CATGGTGCACCTGACTCCTG
DNA 2: CAGGAGTCAGGTGCACCATG
- activity: ≥ 100 % of reference
